Test results published in patent US20240209076A1 (KODIAK SCIENCES, published 2024).

B1: anti-IL-6 antibody, heavy chain T65W, G66D / light chain M32L, M50D, N52S, M88Q (antibody, human IgG1, V domains shown)
VH: EVQLVESGGGLVQPGGSLRLSCAASGFTFSPFAMSWVRQAPGKGLEWVAKISPGGSWTYYSDTVWDRFTFSLDTSKSTAYLQMNSLRAEDTAVYYCARQLWGYYALDIWGQGTLVTVSS
VL: DIQLTQSPSSLSASVGDRVTITCSASISVSYLYWYQQKPGKAPKLLIYDDSSLASGVPSRFSGSGSGTDFTLTISSLQPEDFATYYCQQWSGYPYTFGQGTKVEIK
notes: Human IgG1
B2: anti-IL-6 antibody, heavy chain T65K, G66D / light chain M32L, M50D, N52S, M88Q (antibody, human IgG1, V domains shown)
VH: EVQLVESGGGLVQPGGSLRLSCAASGFTFSPFAMSWVRQAPGKGLEWVAKISPGGSWTYYSDTVKDRFTFSLDTSKSTAYLQMNSLRAEDTAVYYCARQLWGYYALDIWGQGTLVTVSS
VL: DIQLTQSPSSLSASVGDRVTITCSASISVSYLYWYQQKPGKAPKLLIYDDSSLASGVPSRFSGSGSGTDFTLTISSLQPEDFATYYCQQWSGYPYTFGQGTKVEIK
notes: Human IgG1
B3: anti-IL-6 antibody, heavy chain T65S, G66D / light chain M32L, M50D, N52S, M88Q (antibody, human IgG1, V domains shown)
VH: EVQLVESGGGLVQPGGSLRLSCAASGFTFSPFAMSWVRQAPGKGLEWVAKISPGGSWTYYSDTVSDRFTFSLDTSKSTAYLQMNSLRAEDTAVYYCARQLWGYYALDIWGQGTLVTVSS
VL: DIQLTQSPSSLSASVGDRVTITCSASISVSYLYWYQQKPGKAPKLLIYDDSSLASGVPSRFSGSGSGTDFTLTISSLQPEDFATYYCQQWSGYPYTFGQGTKVEIK
notes: Human IgG1
B4: anti-IL-6 antibody, heavy chain T65G, G66D / light chain M32L, M50D, N52S, M88Q (antibody, human IgG1, V domains shown)
VH: EVQLVESGGGLVQPGGSLRLSCAASGFTFSPFAMSWVRQAPGKGLEWVAKISPGGSWTYYSDTVGDRFTFSLDTSKSTAYLQMNSLRAEDTAVYYCARQLWGYYALDIWGQGTLVTVSS
VL: DIQLTQSPSSLSASVGDRVTITCSASISVSYLYWYQQKPGKAPKLLIYDDSSLASGVPSRFSGSGSGTDFTLTISSLQPEDFATYYCQQWSGYPYTFGQGTKVEIK
notes: Human IgG1
B5: anti-IL-6 antibody, heavy chain T65L, G66D / light chain M32L, M50D, N52S, M88Q (antibody, human IgG1, V domains shown)
VH: EVQLVESGGGLVQPGGSLRLSCAASGFTFSPFAMSWVRQAPGKGLEWVAKISPGGSWTYYSDTVLDRFTFSLDTSKSTAYLQMNSLRAEDTAVYYCARQLWGYYALDIWGQGTLVTVSS
VL: DIQLTQSPSSLSASVGDRVTITCSASISVSYLYWYQQKPGKAPKLLIYDDSSLASGVPSRFSGSGSGTDFTLTISSLQPEDFATYYCQQWSGYPYTFGQGTKVEIK
notes: Human IgG1
B6: anti-IL-6 antibody, heavy chain T65H, G66D / light chain M32L, M50D, N52S, M88Q (antibody, human IgG1, V domains shown)
VH: EVQLVESGGGLVQPGGSLRLSCAASGFTFSPFAMSWVRQAPGKGLEWVAKISPGGSWTYYSDTVHDRFTFSLDTSKSTAYLQMNSLRAEDTAVYYCARQLWGYYALDIWGQGTLVTVSS
VL: DIQLTQSPSSLSASVGDRVTITCSASISVSYLYWYQQKPGKAPKLLIYDDSSLASGVPSRFSGSGSGTDFTLTISSLQPEDFATYYCQQWSGYPYTFGQGTKVEIK
notes: Human IgG1
B7: anti-IL-6 antibody, heavy chain T65R, G66D / light chain M32L, M50D, N52S, M88Q (antibody, human IgG1, V domains shown)
VH: EVQLVESGGGLVQPGGSLRLSCAASGFTFSPFAMSWVRQAPGKGLEWVAKISPGGSWTYYSDTVRDRFTFSLDTSKSTAYLQMNSLRAEDTAVYYCARQLWGYYALDIWGQGTLVTVSS
VL: DIQLTQSPSSLSASVGDRVTITCSASISVSYLYWYQQKPGKAPKLLIYDDSSLASGVPSRFSGSGSGTDFTLTISSLQPEDFATYYCQQWSGYPYTFGQGTKVEIK
notes: Human IgG1
B8: anti-IL-6 antibody, heavy chain T65F, G66D / light chain M32L, M50D, N52S, M88Q (antibody, human IgG1, V domains shown)
VH: EVQLVESGGGLVQPGGSLRLSCAASGFTFSPFAMSWVRQAPGKGLEWVAKISPGGSWTYYSDTVFDRFTFSLDTSKSTAYLQMNSLRAEDTAVYYCARQLWGYYALDIWGQGTLVTVSS
VL: DIQLTQSPSSLSASVGDRVTITCSASISVSYLYWYQQKPGKAPKLLIYDDSSLASGVPSRFSGSGSGTDFTLTISSLQPEDFATYYCQQWSGYPYTFGQGTKVEIK
notes: Human IgG1
B9: anti-IL-6 antibody, heavy chain T65Y, G66D / light chain M32L, M50D, N52S, M88Q (antibody, human IgG1, V domains shown)
VH: EVQLVESGGGLVQPGGSLRLSCAASGFTFSPFAMSWVRQAPGKGLEWVAKISPGGSWTYYSDTVYDRFTFSLDTSKSTAYLQMNSLRAEDTAVYYCARQLWGYYALDIWGQGTLVTVSS
VL: DIQLTQSPSSLSASVGDRVTITCSASISVSYLYWYQQKPGKAPKLLIYDDSSLASGVPSRFSGSGSGTDFTLTISSLQPEDFATYYCQQWSGYPYTFGQGTKVEIK
notes: Human IgG1
B10: anti-IL-6 antibody, heavy chain T65P, G66D / light chain M32L, M50D, N52S, M88Q (antibody, human IgG1, V domains shown)
VH: EVQLVESGGGLVQPGGSLRLSCAASGFTFSPFAMSWVRQAPGKGLEWVAKISPGGSWTYYSDTVPDRFTFSLDTSKSTAYLQMNSLRAEDTAVYYCARQLWGYYALDIWGQGTLVTVSS
VL: DIQLTQSPSSLSASVGDRVTITCSASISVSYLYWYQQKPGKAPKLLIYDDSSLASGVPSRFSGSGSGTDFTLTISSLQPEDFATYYCQQWSGYPYTFGQGTKVEIK
notes: Human IgG1
B11: anti-IL-6 antibody, heavy chain T65V, G66D / light chain M32L, M50D, N52S, M88Q (antibody, human IgG1, V domains shown)
VH: EVQLVESGGGLVQPGGSLRLSCAASGFTFSPFAMSWVRQAPGKGLEWVAKISPGGSWTYYSDTVVDRFTFSLDTSKSTAYLQMNSLRAEDTAVYYCARQLWGYYALDIWGQGTLVTVSS
VL: DIQLTQSPSSLSASVGDRVTITCSASISVSYLYWYQQKPGKAPKLLIYDDSSLASGVPSRFSGSGSGTDFTLTISSLQPEDFATYYCQQWSGYPYTFGQGTKVEIK
notes: Human IgG1
B12: anti-IL-6 Fab, parental molecule (Fab, V domains shown)
VH: EVQLVESGGGLVQPGGSLRLSCAASGFTFSPFAMSWVRQAPGKGLEWVAKISPGGSWTYYSDTVTGRFTFSLDTSKSTAYLQMNSLRAEDTAVYYCARQLWGYYALDIWGQGTLVTVSS
VL: DIQLTQSPSSLSASVGDRVTITCSASISVSYMYWYQQKPGKAPKLLIYDMSNLASGVPSRFSGSGSGTDFTLTISSLQPEDFATYYCMQWSGYPYTFGQGTKVEIK
notes: Fab expressed in E. coli TG1, tested as filtered lysate; also called wild-type; parent molecule
B13: anti-IL-6 Fab, heavy chain F27P (Fab, V domains shown)
VH: EVQLVESGGGLVQPGGSLRLSCAASGPTFSPFAMSWVRQAPGKGLEWVAKISPGGSWTYYSDTVTGRFTFSLDTSKSTAYLQMNSLRAEDTAVYYCARQLWGYYALDIWGQGTLVTVSS
VL: DIQLTQSPSSLSASVGDRVTITCSASISVSYMYWYQQKPGKAPKLLIYDMSNLASGVPSRFSGSGSGTDFTLTISSLQPEDFATYYCMQWSGYPYTFGQGTKVEIK
notes: see m39
B14: anti-IL-6 Fab, heavy chain A49T (Fab, V domains shown)
VH: EVQLVESGGGLVQPGGSLRLSCAASGFTFSPFAMSWVRQAPGKGLEWVTKISPGGSWTYYSDTVTGRFTFSLDTSKSTAYLQMNSLRAEDTAVYYCARQLWGYYALDIWGQGTLVTVSS
VL: DIQLTQSPSSLSASVGDRVTITCSASISVSYMYWYQQKPGKAPKLLIYDMSNLASGVPSRFSGSGSGTDFTLTISSLQPEDFATYYCMQWSGYPYTFGQGTKVEIK
notes: see m39
B15: anti-IL-6 Fab, heavy chain A49S (Fab, V domains shown)
VH: EVQLVESGGGLVQPGGSLRLSCAASGFTFSPFAMSWVRQAPGKGLEWVSKISPGGSWTYYSDTVTGRFTFSLDTSKSTAYLQMNSLRAEDTAVYYCARQLWGYYALDIWGQGTLVTVSS
VL: DIQLTQSPSSLSASVGDRVTITCSASISVSYMYWYQQKPGKAPKLLIYDMSNLASGVPSRFSGSGSGTDFTLTISSLQPEDFATYYCMQWSGYPYTFGQGTKVEIK
notes: see m39
B16: anti-IL-6 Fab, heavy chain F27R (Fab, V domains shown)
VH: EVQLVESGGGLVQPGGSLRLSCAASGRTFSPFAMSWVRQAPGKGLEWVAKISPGGSWTYYSDTVTGRFTFSLDTSKSTAYLQMNSLRAEDTAVYYCARQLWGYYALDIWGQGTLVTVSS
VL: DIQLTQSPSSLSASVGDRVTITCSASISVSYMYWYQQKPGKAPKLLIYDMSNLASGVPSRFSGSGSGTDFTLTISSLQPEDFATYYCMQWSGYPYTFGQGTKVEIK
notes: see m39
B17: anti-IL-6 Fab, heavy chain F27S (Fab, V domains shown)
VH: EVQLVESGGGLVQPGGSLRLSCAASGSTFSPFAMSWVRQAPGKGLEWVAKISPGGSWTYYSDTVTGRFTFSLDTSKSTAYLQMNSLRAEDTAVYYCARQLWGYYALDIWGQGTLVTVSS
VL: DIQLTQSPSSLSASVGDRVTITCSASISVSYMYWYQQKPGKAPKLLIYDMSNLASGVPSRFSGSGSGTDFTLTISSLQPEDFATYYCMQWSGYPYTFGQGTKVEIK
notes: see m39
B18: anti-IL-6 Fab, heavy chain F27G (Fab, V domains shown)
VH: EVQLVESGGGLVQPGGSLRLSCAASGGTFSPFAMSWVRQAPGKGLEWVAKISPGGSWTYYSDTVTGRFTFSLDTSKSTAYLQMNSLRAEDTAVYYCARQLWGYYALDIWGQGTLVTVSS
VL: DIQLTQSPSSLSASVGDRVTITCSASISVSYMYWYQQKPGKAPKLLIYDMSNLASGVPSRFSGSGSGTDFTLTISSLQPEDFATYYCMQWSGYPYTFGQGTKVEIK
notes: see m39
B19: anti-IL-6 Fab, heavy chain D62Q (Fab, V domains shown)
VH: EVQLVESGGGLVQPGGSLRLSCAASGFTFSPFAMSWVRQAPGKGLEWVAKISPGGSWTYYSQTVTGRFTFSLDTSKSTAYLQMNSLRAEDTAVYYCARQLWGYYALDIWGQGTLVTVSS
VL: DIQLTQSPSSLSASVGDRVTITCSASISVSYMYWYQQKPGKAPKLLIYDMSNLASGVPSRFSGSGSGTDFTLTISSLQPEDFATYYCMQWSGYPYTFGQGTKVEIK
notes: see m39

molecular target: human IL-6 (human, UniProt P05231 30-212); assay: SPR (Biacore), supernatant antibody on Protein A chip, IL-6 flowed, 37 C
Sequence (P05231 30-212 limits assumed): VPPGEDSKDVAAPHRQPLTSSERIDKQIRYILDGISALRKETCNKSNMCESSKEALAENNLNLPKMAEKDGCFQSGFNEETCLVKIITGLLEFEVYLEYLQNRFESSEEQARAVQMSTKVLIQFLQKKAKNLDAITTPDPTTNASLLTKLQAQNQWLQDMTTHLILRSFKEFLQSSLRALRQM

Row | Kd [nM] | koff [s⁻¹] | kon [M⁻¹ s⁻¹] | Binder
1 | 0.322 | 0.000384 | 1.19e+06 | B1
2 | 0.356 | 0.000579 | 1.63e+06 | B2
3 | 0.31 | 0.000441 | 1.42e+06 | B3
4 | 0.311 | 0.000477 | 1.53e+06 | B4
5 | 0.293 | 0.000446 | 1.53e+06 | B5
6 | 0.297 | 0.000423 | 1.43e+06 | B6
7 | 0.327 | 0.000532 | 1.63e+06 | B7
8 | 0.291 | 0.000391 | 1.34e+06 | B8
9 | 0.237 | 0.000367 | 1.55e+06 | B9
10 | 0.601 | 0.00108 | 1.79e+06 | B10
11 | 0.281 | 0.000551 | 1.96e+06 | B11

molecular target: recombinant human IL-6 (human, UniProt P05231 30-212); assay: SPR, IL-6 on CM5 chip, Fab lysate, 25 C
Sequence (P05231 30-212 limits assumed): as above
Experimental: Three ranges of antigen density (100-150 RU, 300-400 RU, 400-600 RU) were obtained by using variable flow times for each chip channel, later blocked with ethanolamine. Supernatants of the 96-well filtered culture lysates were injected at 50 μL/min for 120 seconds. Fitting of dissociation curves (300 seconds) to single exponential decay curve was used for the determination of dissociation rates (koff). Chip surfaces were regenerated with 10 mM Glycine pH 1.7 solution injected at 50 μL/min during 60 seconds after every cycle of sample binding and dissociation.

Row | koff [s⁻¹] | Binder
12 | 0.00494 | B12
13 | 0.00418 | B13
14 | 0.00575 | B14
15 | 0.0054 | B15
16 | 0.00394 | B16
17 | 0.00393 | B17
18 | 0.00401 | B18
19 | 0.00434 | B19
